Results published in US20100111959A1.
Substitutions are numbered along the chain they refer to. Names and notes keep the numbering of the source. Values joined by “and” are separate entries in the source; they are usually repeats but may differ in a detail not shown here. Equal values may be shown once.

B1: Lc3Hc6 (antibody, human IgG1, V domains shown)
VH: QVQLVESGGGVVQPGRSLRLSCAASGFSLSTYGMGVGWVRQAPGKGLEWVAHIWWDDVKRYNPALKSRFTISRDNSKNTLYLQMNSLRAEDTAVYYCARMGSDYDVWFDYWGQGTLVTVSS
VL: AIQLTQSPSSLSASVGDRVTITCRASKSISKYLAWYQQKPGKAPKLLIYSGSTLQSGVPSRFSGSGSGTDFTLTISSLQPEDFATYYCQQHNEYPYTFGGGTKVEIK
B2: Lc7Hc6 (antibody, human IgG1, V domains shown)
VL: B1 VL with A1D, Q37R, A43V, F83V, C88G, G100Q, V104L
VH: B1 VH
B3: Lc15Hc1 (antibody, human IgG1, V domains shown)
VH: QVTLKESGPALVKPTQTLTLTCTFSGFSLSTYGMGVGWIRQPPGKALEWLAHIWWDDVKRYNPALKSRLTISKDTSKNQVVLTMTNMDPVDTATYYCARMGSDYDVWFDYWGQGTLVTVSS
VL: B1 VL with A1V, Q3W, L4M, S10L, V15T, T22S, K45E, S77C, P80S
B4: Lc7Hc1 (antibody, human IgG1, V domains shown)
VL: B1 VL with A1D, Q37R, A43V, F83V, C88G, G100Q, V104L
VH: B3 VH
B5: mAb Lc-2B03 + Hc2 M34S, M100L (antibody, human IgG1, V domains shown)
VH: B3 VH with A10V, Q16E, F24V, M34S, N78S, M100L
VL: EIVLTQSPATLSLSPGERATLSCRASKSISKYLAWYQQKPGQAPRLLIYSGSTLQSGIPARFSGSGSGTDFTLTISSLEPEDFAVYYCQQHDYPYTFGQGTKLEIKR
B6: mAb Lc-2B03 + Hc2 M34Q, M100L (antibody, human IgG1, V domains shown)
VH: B3 VH with A10V, Q16E, F24V, M34Q, N78S, M100L
VL: B5 VL
B7: mAb Lc-2B03 + Hc2 T31S, M34S, M100L (antibody, human IgG1, V domains shown)
VH: B3 VH with A10V, Q16E, F24V, T31S, M34S, N78S, M100L
VL: B5 VL
B8: mAb Lc-2B03 + Hc2 T31S, M34S, M100L, V106I (antibody, human IgG1, V domains shown)
VH: B3 VH with A10V, Q16E, F24V, T31S, M34S, N78S, M100L, V106I
VL: B5 VL
B9: mAb Lc-2B03 + Hc2 T31S, M34V, M100L (antibody, human IgG1, V domains shown)
VH: B3 VH with A10V, Q16E, F24V, T31S, M34V, N78S, M100L
VL: B5 VL
B10: mAb Lc-2B03 + Hc2 M34V, M100L (antibody, human IgG1, V domains shown)
VH: B3 VH with A10V, Q16E, F24V, M34V, N78S, M100L
VL: B5 VL
B11: mAb Lc-2B03 + Hc2 M34E, M100L, V106I (antibody, human IgG1, V domains shown)
VH: B3 VH with A10V, Q16E, F24V, M34E, N78S, M100L, V106I
VL: B5 VL
B12: mAb Lc-2B03 + Hc2 M34E, M100L (antibody, human IgG1, V domains shown)
VH: B3 VH with A10V, Q16E, F24V, M34E, N78S, M100L
VL: B5 VL
B13: mAb Lc-2B03 + Hc2 M34S, M100L, V106I (antibody, human IgG1, V domains shown)
VH: B3 VH with A10V, Q16E, F24V, M34S, N78S, M100L, V106I
VL: B5 VL
B14: mAb Lc-2B03 + Hc2 M34V, M100L, V106I (antibody, human IgG1, V domains shown)
VH: B3 VH with A10V, Q16E, F24V, M34V, N78S, M100L, V106I
VL: B5 VL

Target: human IL-13 R130Q variant (R110Q of the mature chain) (human) (UniProt P35225)
Test: IL-13Ra2 binding inhibition ELISA, crude supernatant

Going from B1 to B2, the Percent Inhibition IL-13 R130Q (333 ng/ml) to Ra2 falls from 14% to 4%.

Going from B3 to B4, the Percent Inhibition IL-13 R130Q (333 ng/ml) to Ra2 falls from 44% to 6%.

Target: human IL-13 R130Q variant (R110Q of the mature chain) (human) (UniProt P35225)
Test: Biacore SPR, mAb from CHO

B5 and B6 are within 1.5-fold of each other in Kd: 0.0184 nM for the first, 0.0251 nM for the second.

Compared with B7, B8 is 2.1-fold higher in Kd: 0.0101 nM for the first, 0.0211 nM for the second.

First: B9
Second: B10
The Kd of the first is 3.3-fold lower: 0.0058 nM for the first, 0.019 nM for the second. The first binds more tightly here.

Target: human IL-13 R130Q variant (R110Q of the mature chain) (human) (UniProt P35225)
Test: direct binding ELISA, crude supernatant, relative to Lc16Hc7

Going from B1 to B2, the Percent IL-13 R130Q (30 ng/ml) Binding falls from 26.6% to -0.3%.

First: B3
Second: B4
The Percent IL-13 R130Q (30 ng/ml) Binding of the first is higher: 76.2% for the first, -1.4% for the second.

Target: human IL-13 R130Q variant (R110Q of the mature chain) (human) (UniProt P35225)
Test: Biacore SPR, mAb from HEK293

Compared with B5, B6 is 17-fold higher in Kd: 0.0014 nM for the first, 0.0243 nM for the second. The first binds more tightly here.

B11 and B7 are within 1.5-fold of each other in Kd: 0.0114 nM for the first, 0.0123 nM for the second.

First: B12
Second: B8
The Kd of the first is 2-fold lower: 0.0076 nM for the first, 0.0152 nM for the second. The first binds more tightly here.

Compared with B9, B14 is 6.8-fold higher in Kd: 0.0037 nM for the first, 0.0252 nM for the second. The first binds more tightly here.

Work on B10 yielded a Kd of 0.0164 nM.

For B13, the Kd was 0.0205 nM and 0.0209 nM.
